For the test, the target named is DENV1 envelope (E) protein, strain Western Pacific 74, on the virus surface (dengue virus serotype 1, strain Western Pacific 74).

B1: Fab fragment of HMAb 1F4 (Fab, V domains shown)
VH: QVQLVESGGGVVQPGRSLRLSCAASGFTFSAYGMHWVRQAPGKGLEWVAIIWYDGSNKYYADSVKGRFTISRDNSKNTLHLQMNSLRAEDTAIYYCARDKNPGTKPYYHYGMDVWGQGTTVTVSS
VL: QSVLTQPPSVSEAPRQRVTISCSGSSSNIGNNAVNWYQQFPGKAPKLLIYYDDLLPSGVSDRFSGSKSGTSASLAISGLQSEDEAYYYCAAWDDSLIGVVFGGGTKLTVL
As to B1, the neutralisation of DENV1 (Western Pacific 74) in U937 cells expressing DC-SIGN, flow cytometry, Neut50 amounted to 0.11 µg/mL.

The values above are taken from article PMC3958310.
